As usually defined, the solubility is how much of the substance goes into solution per volume. High values mean much dissolved substance, low ones little dissolved substance.

Structures are written as SMILES. *1 amine or outer side, *2 acyl side, *3 side chain or, on linkers, in order; H or OH if unused. Where a SMILES comes first, the peptide text is derived from it. [ ]: non-standard residue; d: D form. The star is where a group is joined. ξ: configuration not given here. Doxorubicin(3'-N) = COc1cccc2c1C(=O)c1c(O)c3c(c(O)c1C2=O)C[C@@](O)(C(=O)CO)C[C@@H]3O[C@H]1C[C@H](N*)[C@H](O)[C@H](C)O1; Dovitinib(4-NH) = CN1CCN(c2ccc3nc(-c4c(N*)c5c(F)cccc5[nH]c4=O)[nH]c3c2)CC1; Thyronine(3,5,3'-I3) = N[C@@H](Cc1cc(I)c(Oc2ccc(O)c(I)c2)c(I)c1)C(=O)O; Mal(CH2CH2O)6CH2CH2CO = O=C1C=CC(=O)N1CCOCCOCCOCCOCCOCCOCCC(=O)*; X9 = O=C([C@@H](Cc1cc(I)c(Oc2ccc(O)c(I)c2)c(I)c1)N[*:1])[*:2]; Hexanoyl(6-maleimido) = O=C1C=CC(=O)N1CCCCCC(=O)*; Resiquimod = CCOCc1nc2c(N*)nc3ccccc3c2n1CC(C)(C)O; Propanoyl(3-maleimido) = O=C1C=CC(=O)N1CCC(=O)*; X1 = O=C1C=CC(=O)N1CCOCCOCCOCCC(=O)*; PABC = O=C(OCc1ccc(N[*:1])cc1)[*:2]; X3 = O=C1C=CC(=O)N1CCOCCOCCC(=O)*; PEG3 = NCCOCCOCCOCCC(=O)O; ξN = NC(=O)CC(N)C(=O)O

For 22 compounds, solubility results are on record in patent US20230414771A1, “PREPARATION AND USE OF IMMUNOSTIMULATORY CONJUGATED COMPLEXES FOR TARGETED DELIVERY AND ACTIVATION” (YAFEI SHANGHAI BIOLOGY MEDICINE SCIENCE & TECHNOLOGY CO., …, priority 2020, published 2023).

This series is described as follows: Water solubility test (observation and HPLC). The class given is physicochemical. The conditions noted are these: thermodynamic from solid. The method, then:
The compounds prepared in accordance with the examples of the disclosure and the reference compounds C1, C2, C3 and C4 were lyophilized (−70° C.).
With `CC(C)C[C@H](NC(=O)[C@H](CC(N)=O)NC(=O)[C@H](C)NC(=O)[C@H](C)NC(=O)CCOCCOCCOCCNC(=O)CCN1C(=O)C=CC1=O)C(=O)Nc1c(-c2nc3ccc(N4CCN(C)CC4)cc3[nH]2)c(=O)[nH]c2cccc(F)c12` [QHL-090 - Dovitinib] ({Propanoyl(3-maleimido)-PEG3}-AANL-{Dovitinib(4-NH)}), the solubility was more than 10000 µg/mL.

`CCOCc1nc2c(NC(=O)OCc3ccc(NC(=O)[C@H](CC(N)=O)NC(=O)[C@H](C)NC(=O)[C@H](C)NC(=O)CCOCCOCCOCCOCCOCCOCCN4C(=O)C=CC4=O)cc3)nc3ccccc3c2n1CC(C)(C)O` [QHL-008-Resiquimod] had a solubility of more than 10000 µg/mL.

For the compound `C[C@@H](NC(=O)CCOCCOCCNC(=O)CCN1C(=O)C=CC1=O)C(=O)N[C@H](C)C(=O)N[C@H](CC(N)=O)C(=O)Nc1ccc(COC(=O)Nc2c(-c3nc4ccc(N5CCN(C)CC5)cc4[nH]3)c(=O)[nH]c3cccc(F)c23)cc1` [QHL-086 - Dovitinib], the solubility is more than 20000 µg/mL.

In turn, `CCOCc1nc2c(NC(=O)OCc3ccc(NC(=O)[C@@H](CC(N)=O)NC(=O)[C@H](C)NC(=O)[C@H](C)NC(=O)CCOCCOCCN4C(=O)C=CC4=O)cc3)nc3ccccc3c2n1CC(C)(C)O` [QHL-005-Resiquimod] yielded a solubility of more than 10000 µg/mL.

On to `C[C@@H](NC(=O)CCOCCOCCOCCNC(=O)CCN1C(=O)C=CC1=O)C(=O)N[C@H](C)C(=O)N[C@H](CC(N)=O)C(=O)Nc1ccc(COC(=O)Nc2c(-c3nc4ccc(N5CCN(C)CC5)cc4[nH]3)c(=O)[nH]c3cccc(F)c23)cc1` [QHL-089 - Dovitinib], for which the solubility was more than 20000 µg/mL.

Regarding `C[C@H](NC(=O)[C@H](C)NC(=O)[C@@H](CCC(=O)O)NC(=O)CCCCCN1C(=O)C=CC1=O)C(=O)N[C@@H](CC(N)=O)C(=O)N[C@H](Cc1cc(I)c(Oc2ccc(O)c(I)c2)c(I)c1)C(=O)O` [QHL-161-T3] ({Hexanoyl(6-maleimido)}-[dE]AAN[X9]-OH), the solubility is more than 10000 µg/mL.

As to `CCOCc1nc2c(NC(=O)OCc3ccc(NC(=O)[C@H](CC(N)=O)NC(=O)[C@H](C)NC(=O)[C@H](C)NC(=O)CCCCCN4C(=O)C=CC4=O)cc3)nc3ccccc3c2n1CC(C)(C)O` [QHL-140-Resiquimod], the solubility was more than 10000 µg/mL.

On to `C[C@H](NC(=O)CCOCCOCCN1C(=O)C=CC1=O)C(=O)N[C@@H](C)C(=O)N[C@H](CC(N)=O)C(=O)N[C@@H](Cc1cc(I)c(Oc2ccc(O)c(I)c2)c(I)c1)C(=O)O` [QHL-153-T3] (X3-AA[dN][Thyronine(3,5,3'-I3)]-OH), for which the solubility was more than 10000 µg/mL.

As to `C[C@H](NC(=O)CCOCCOCCOCCN1C(=O)C=CC1=O)C(=O)N[C@@H](C)C(=O)N[C@H](CC(N)=O)C(=O)N[C@@H](Cc1cc(I)c(Oc2ccc(O)c(I)c2)c(I)c1)C(=O)O` [QHL-154-T3] (X1-AA[dN][Thyronine(3,5,3'-I3)]-OH), the solubility was more than 10000 µg/mL.

Compound `C[C@H](NC(=O)[C@H](C)NC(=O)[C@@H](CC(=O)O)NC(=O)CCCCCN1C(=O)C=CC1=O)C(=O)NC(CC(N)=O)C(=O)N[C@H](Cc1cc(I)c(Oc2ccc(O)c(I)c2)c(I)c1)C(=O)O` (stereo partly shown) [QHL-162-T3] ({Hexanoyl(6-maleimido)}-[dD]AA[ξN][X9]-OH) returned a solubility of more than 10000 µg/mL.

Compound `CCOCc1nc2c(NC(=O)OCc3ccc(NC(=O)[C@H](CC(N)=O)NC(=O)[C@H](C)NC(=O)[C@H](C)NC(=O)[C@H](CCC(=O)O)NC(=O)CCCCCN4C(=O)C=CC4=O)cc3)nc3ccccc3c2n1CC(C)(C)O` [QHL-116-Resiquimod] ({Hexanoyl(6-maleimido)}-EAAN[PABC]-Resiquimod) displayed a solubility of more than 10000 µg/mL.

In turn, `C[C@@H](NC(=O)CCOCCOCCNC(=O)CCN1C(=O)C=CC1=O)C(=O)N[C@H](C)C(=O)N[C@H](CC(N)=O)C(=O)Nc1ccc(COC(=O)Nc2nccc(-c3sc(C(C)(C)C)nc3-c3cccc(NS(=O)(=O)c4c(F)cccc4F)c3F)n2)cc1` [QHL-086-dabrafenib] had a solubility of more than 20000 µg/mL.

Consider `CCOCc1nc2c(NC(=O)OCc3ccc(NC(=O)[C@H](CC(N)=O)NC(=O)[C@H](C)NC(=O)[C@H](C)NC(=O)CCOCCOCCNC(=O)CCN4C(=O)C=CC4=O)cc3)nc3ccccc3c2n1CC(C)(C)O` [QHL-086-Resiquimod], for which the solubility was more than 10000 µg/mL.

In the case of `C[C@@H](NC(=O)CCOCCOCCOCCNC(=O)CCN1C(=O)C=CC1=O)C(=O)N[C@H](C)C(=O)N[C@H](CC(N)=O)C(=O)Nc1ccc(COC(=O)Nc2nccc(-c3sc(C(C)(C)C)nc3-c3cccc(CS(=O)(=O)c4c(F)cccc4F)c3F)n2)cc1` [QHL-089-dabrafenib], the solubility is more than 20000 µg/mL.

In turn, `CCOCc1nc2c(NC(=O)OCc3ccc(NC(=O)[C@H](CC(N)=O)NC(=O)[C@H](C)NC(=O)[C@H](C)NC(=O)CCOCCOCCOCCOCCOCCOCCNC(=O)CCN4C(=O)C=CC4=O)cc3)nc3ccccc3c2n1CC(C)(C)O` [QHL-095-Resiquimod] gave a solubility of more than 10000 µg/mL.

`C[C@H](NC(=O)CCOCCOCCOCCOCCOCCOCCN1C(=O)C=CC1=O)C(=O)N[C@@H](C)C(=O)N[C@H](CC(N)=O)C(=O)N[C@@H](Cc1cc(I)c(Oc2ccc(O)c(I)c2)c(I)c1)C(=O)O` [QHL-155-T3] ({Mal(CH2CH2O)6CH2CH2CO}-AA[dN][Thyronine(3,5,3'-I3)]-OH) registered a solubility of more than 10000 µg/mL.

In turn, `CCOCc1nc2c(NC(=O)OCc3ccc(NC(=O)[C@@H](CC(N)=O)NC(=O)[C@H](C)NC(=O)[C@H](C)NC(=O)CCOCCOCCOCCN4C(=O)C=CC4=O)cc3)nc3ccccc3c2n1CC(C)(C)O` [QHL-006-Resiquimod] returned a solubility of more than 10000 µg/mL.

For the compound `COc1cccc2c1C(=O)c1c(O)c3c(c(O)c1C2=O)C[C@@](O)(C(=O)CO)C[C@@H]3O[C@H]1C[C@H](NC(=O)[C@H](CC(C)C)NC(=O)[C@H](CC(N)=O)NC(=O)[C@H](C)NC(=O)[C@H](C)NC(=O)[C@@H](NC(=O)CCCCCN2C(=O)C=CC2=O)C(C)C)[C@H](O)[C@H](C)O1` [QHL-123-DOX] ({Hexanoyl(6-maleimido)}-VAANL-{Doxorubicin(3'-N)}), the solubility was more than 2000 µg/mL.

`CCOCc1nc2c(NC(=O)OCc3ccc(NC(=O)[C@@H](CC(N)=O)NC(=O)[C@H](C)NC(=O)[C@H](C)NC(=O)CCOCCOCCOCCNC(=O)CCN4C(=O)C=CC4=O)cc3)nc3ccccc3c2n1CC(C)(C)O` [QHL-089-Resiquimod] returned a solubility of more than 10000 µg/mL.

`CCOCc1nc2c(NC(=O)OCc3ccc(NC(=O)[C@H](CC(N)=O)NC(=O)[C@H](C)NC(=O)[C@H](C)NC(=O)CCOCCOCCOCCOCCOCCOCCOCCOCCOCCOCCOCCOCCN4C(=O)C=CC4=O)cc3)nc3ccccc3c2n1CC(C)(C)O` [QHL-147-Resiquimod] gave a solubility of more than 10000 µg/mL.

As for `C[C@@H](NC(=O)CCOCCOCCNC(=O)CCN1C(=O)C=CC1=O)C(=O)N[C@H](C)C(=O)N[C@H](CC(N)=O)C(=O)Nc1ccc(COC(=O)N2CC(C)(C)c3ccc(NC(=O)c4cccnc4NCc4ccncc4)cc32)cc1` [QHL-089-Motesani], the solubility was more than 20000 µg/mL.

`CCOCc1nc2c(NC(=O)OCc3ccc(NC(=O)C(CC(N)=O)NC(=O)[C@H](C)NC(=O)[C@H](C)NC(=O)CCOCCOCCOCCOCCNC(=O)CCN4C(=O)C=CC4=O)cc3)nc3ccccc3c2n1CC(C)(C)O` (stereo partly shown) [QHL-092-Resiquimod] had a solubility of more than 10000 µg/mL.
